Measured values published in publication PMC4014126 (2014).

B1: Myc-tagged mouse IL-17RA [mouse] / NF-κB activator 1 (Act1) [mouse (endogenous in MEFs)] (parent complex)
chain 1: SPRLLDFPAPVCAQEGLSCRVKNSTCLDDSWIHPKNLTPSSPKNIYINLSVSSTQHGELVPVLHVEWTLQTDASILYLEGAELSVLQLNTNERLCVKFQFLSMLQHHRKRWRFSFSHFVVDPGQEYEVTVHHLPKPIPDGDPNHKSKIIFVPDCEDSKMKMTTSCVSSGSLWDPNITVETLDTQHLRVDFTLWNESTPYQVLLESFSDSENHSCFDVVKQIFAPRQEEFHQRANVTFTLSKFHWCCHHHVQVQPFFSSCLNDCLRHAVTVPCPVISNTTVPKPVADYIPLWVYGLITLIAILLVGSVIVLIICMTWRLSGADQEKHGDDSKINGILPVADLTPPPLRPRKVWIVYSADHPLYVEVVLKFAQFLITACGTEVALDLLEEQVISEVGVMTWVSRQKQEMVESNSKIIILCSRGTQAKWKAILGWAEPAVQLRCDHWKPAGDLFTAAMNMILPDFKRPACFGTYVVCYFSGICSERDVPDLFNITSRYPLMDRFEEVYFRIQDLEMFEPGRMHHVRELTGDNYLQSPSGRQLKEAVLRFQEWQTQCPDWFERENLCLADGQDLPSLDEEVFEDPLLPPGGGIVKQQPLVRELPSDGCLVVDVCVSEEESRMAKLDPQLWPQRELVAHTLQSMVLPAEQVPAAHVVEPLHLPDGSGAAAQLPMTEDSEACPLLGVQRNSILCLPVDSDDLPLCSTPMMSPDHLQGDAREQLESLMLSVLQQSLSGQPLESWPRPEVVLEGCTPSEEEQRQSVQSDQGYISRSSPQPPEWLTEEEELELGEPVESLSPEELRSLRKLQRQLFFWELEKNPGWNSLEPRRPTPEEQNPS
chain 2: MNRSIPVEVDESEPFPSQLLKPIPEYSPEEELEPPAPNTRNMAPSSLSVLQCPPLKLANHQPVSQQVTCLRAKVLEEGEASFFRRHPELGKDISSCSSGASEPESELGALPPEHRFTLTEKRNRWLGSQLSAASPDTGHESDKSDPSLPNALADSFSGGQEMMPRPRPRPGPHRHRAAPDVPTIDTGYDSQPQDVLGIRQLERPLPLTSSCYLQDLPGPLRSRELPPQFELERYPMNAQLLPPHPSPQAPWNCQYYCPGGPYHHQVPHGHGYPPAAAYQQVLQPALPGQVLPGARARGPRPVQKVILNDSSPQDQEERPAQRDFSFPRLPRDQLYRPPSNGVEAPEESLDLPAELRPHGPQAPSLAAVPRPPSNPLARGTLRTSNLPEELRKVFITYSMDTAMEVVKFVNFLLVNGFQTAIDIFEDRIRGIDIIKWMERYLRDKTVMIIVAISPKYKQDVEGAESQLDEDEHGLHTKYIHRMMQIEFISQGSMNFRFIPVLFPNAKKEHVPTWLQNTHVYSWPKNKKNILLRLLREEEYVAPPRGPLPTLQVVPL

Variants of: B1
Assay: co-immunoprecipitation (anti-Myc IP, Western blot, ImageJ densitometry); IL-17RA-deficient MEFs reconstituted by retroviral infection; treated with IL-17 for 10 min; parent: 100

percent of parent	Variant
98	chain 1 V396A, chain 1 M397A
102	chain 1 I429A, chain 1 L430A
107	chain 1 E388A, chain 1 Q389A, chain 1 E393A
107	chain 1 R420A, chain 1 Q423A, chain 1 K427A
